Data reported in publication PMC3973321 (Nucleic Acids Research, 2014).

Target: mitochondrial RNA polymerase (POLRMT), residues 42-1230 (human, UniProt O00411 42-1230)
Assay: ITC

mitochondrial RNA polymerase (POLRMT), residues 42-1230, sequence (O00411 42-1230): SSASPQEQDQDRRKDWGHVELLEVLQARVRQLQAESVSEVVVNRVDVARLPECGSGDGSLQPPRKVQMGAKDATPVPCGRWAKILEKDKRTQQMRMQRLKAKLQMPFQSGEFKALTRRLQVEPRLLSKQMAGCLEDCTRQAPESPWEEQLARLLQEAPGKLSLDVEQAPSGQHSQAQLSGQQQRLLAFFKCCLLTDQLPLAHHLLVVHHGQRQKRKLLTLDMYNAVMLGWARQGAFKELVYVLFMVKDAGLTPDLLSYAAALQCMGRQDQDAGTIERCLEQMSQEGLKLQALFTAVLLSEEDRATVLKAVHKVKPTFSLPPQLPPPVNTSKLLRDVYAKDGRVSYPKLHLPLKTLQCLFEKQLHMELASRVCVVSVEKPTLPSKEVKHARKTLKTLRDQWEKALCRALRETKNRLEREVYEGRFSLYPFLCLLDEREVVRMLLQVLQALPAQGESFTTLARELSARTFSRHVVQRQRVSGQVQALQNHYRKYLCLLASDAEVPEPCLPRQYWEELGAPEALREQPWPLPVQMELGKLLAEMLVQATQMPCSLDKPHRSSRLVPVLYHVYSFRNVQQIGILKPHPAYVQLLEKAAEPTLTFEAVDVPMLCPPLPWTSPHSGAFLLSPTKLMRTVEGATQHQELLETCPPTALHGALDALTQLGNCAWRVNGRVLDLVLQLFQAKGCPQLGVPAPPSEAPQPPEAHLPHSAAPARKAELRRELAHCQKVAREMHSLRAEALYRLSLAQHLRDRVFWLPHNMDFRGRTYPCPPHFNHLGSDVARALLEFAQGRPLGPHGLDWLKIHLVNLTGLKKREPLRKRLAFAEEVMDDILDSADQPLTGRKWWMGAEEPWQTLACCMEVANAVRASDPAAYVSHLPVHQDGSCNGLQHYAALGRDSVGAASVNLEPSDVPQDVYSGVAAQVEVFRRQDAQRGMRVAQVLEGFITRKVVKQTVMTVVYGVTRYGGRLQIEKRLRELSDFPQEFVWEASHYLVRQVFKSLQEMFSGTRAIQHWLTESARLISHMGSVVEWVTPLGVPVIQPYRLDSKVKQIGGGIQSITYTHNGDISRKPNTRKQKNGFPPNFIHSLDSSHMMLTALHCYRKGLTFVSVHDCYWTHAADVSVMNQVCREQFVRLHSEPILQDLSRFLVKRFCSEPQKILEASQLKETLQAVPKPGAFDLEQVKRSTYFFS

- Kd: 4.6 µM
- dH: 11.1 kcal/mol
B1: TFAM, residues 43-246 (natural protein)
chain: SSVLASCPKKPVSSYLRFSKEQLPIFKAQNPDAKTTELIRRIAQRWRELPDSKKKIYQDAYRAEWQVYKEEISRFKEQLTPSQIMSLEKEIMDKHLKRKAMTKKKELTLLGKPKRPRSAYNVYVAERFQEAKGDSPQEKLKTVKENWKNLSDSEKELYIQHAKEDETRYHNEMKSWEEQMIEVGRKDLLRRTIKKQRKYGAEEC
